In PMC2988878 (Nature structural & molecular biology, 2010):
Where no end group is shown, it is not given here.

T1: Mpa residues 1-96 (Mpa1-96) (Mycobacterium tuberculosis, UniProt P9WQN5 1-96)
T1 sequence: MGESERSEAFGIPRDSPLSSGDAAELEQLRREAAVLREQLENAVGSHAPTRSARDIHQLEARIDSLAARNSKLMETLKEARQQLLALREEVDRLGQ

B1: Mpa coiled-coil domain, residues 46-96 (Mpa46-96) (domain or fragment)
chain: SHAPTRSARDIHQLEARIDSLAARNSKLMETLKEARQQLLALREEVDRLGQ
B2: Full-length prokaryotic ubiquitin-like protein, Pup1-64-GGQ with a C-terminal non-cleavable His6-tag (natural protein)
chain: MAQEQTKRGGGGGDDDDIAGSTAAGQERREKLTEETDDLLDEIDDVLEENAEDFVRAYVQKGGQ

Columns and labels:
Test in all cases: […]
[1] = biological target: B2
[2] = biological target: T1, Mpa residues 1-96 (Mpa1-96)
[3] = biological target: B1

## B1
[1]
  binding result: binds

## B2
[2]
  binding result: binds

## {His6‑tag}-STAAGQERREKLTEETDDLLDEIDDVLEENAEDFVRAYVQKGGE (domain or fragment, not fully specified) [N-terminal truncated prokaryotic ubiquitin-like protein, Pup21-64-GGE with an N-terminal His6-tag]
[3]
  binding result: binds
